The results in this text go back to the supplement of paper PMC9112550, “Optimization of the antimicrobial peptide Bac7 by deep mutational scanning” (BMC Biology, 2022).

The data set has as its system Escherichia coli TOP10. Kind of data set: shrunken log2 fold change of peptide-encoding DNA abundance (4.5 h post-induction vs induction); higher = less antimicrobial activity (less host growth inhibition). The settings on record: time post-induction: 4.5 h; library: site-saturation at positions 5, 18, 19, 20.
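Note: peptides expressed intracellularly from a pBAD plasmid library in pooled LB shake-flask culture, induced with 0.3% L-arabinose, DNA abundance read by NGS, three biological replicates, DESeq2 with apeglm shrinkage.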

Consider RRIRDRPPRLPRPRPRPHPNPRP, for which the “shrunken log2 fold change” value is -0.662.

For the sequence RRIRSRPPRLPRPRPRPKDVPRP, the “shrunken log2 fold change” value was -0.162.

Regarding RRIRRRPPRLPRPRPRPTWAPRP, the “shrunken log2 fold change” value stood at 0.7.

RRIRLRPPRLPRPRPRPHSHPRP: the “shrunken log2 fold change” value was found to be 1.65.

Regarding RRIRRRPPRLPRPRPRPEYGPRP, the “shrunken log2 fold change” value is -0.0277.

For RRIRHRPPRLPRPRPRPRVEPRP, the “shrunken log2 fold change” value came out at 0.0973.

RRIRYRPPRLPRPRPRPEIDPRP: the “shrunken log2 fold change” value is -0.0347.

With RRIRPRPPRLPRPRPRPTIYPRP, the “shrunken log2 fold change” value is -0.413.

Turning to RRIRARPPRLPRPRPRPFLEPRP, the “shrunken log2 fold change” value was -0.219.

On to RRIRQRPPRLPRPRPRPSVHPRP, for which the “shrunken log2 fold change” value is -0.276.

Turning to RRIRYRPPRLPRPRPRPPCIPRP, the “shrunken log2 fold change” value was -0.583.

On to RRIRVRPPRLPRPRPRPCWRPRP, for which the “shrunken log2 fold change” value was determined as 0.0437.

As to RRIRHRPPRLPRPRPRPLQPPRP, the “shrunken log2 fold change” value came out at 0.157.

On to RRIRRRPPRLPRPRPRPGYHPRP, for which the “shrunken log2 fold change” value worked out at 0.456.

On to RRIRHRPPRLPRPRPRPSYKPRP, for which the “shrunken log2 fold change” value is -0.0553.

Turning to RRIRKRPPRLPRPRPRPPLTPRP, the “shrunken log2 fold change” value worked out at 0.542.

In the case of RRIRTRPPRLPRPRPRPMIQPRP, the “shrunken log2 fold change” value is -0.146.

RRIRDRPPRLPRPRPRPWIHPRP: the “shrunken log2 fold change” value was -0.0487.

Take RRIRVRPPRLPRPRPRPWNKPRP: the “shrunken log2 fold change” value is -0.635.

For RRIRHRPPRLPRPRPRPHKFPRP, the “shrunken log2 fold change” value is -0.636.

Consider RRIRPRPPRLPRPRPRPAIYPRP, for which the “shrunken log2 fold change” value is -0.017.

Take RRIRFRPPRLPRPRPRPPKVPRP: the “shrunken log2 fold change” value is 0.0991.

For RRIRARPPRLPRPRPRPGQRPRP, the “shrunken log2 fold change” value is 0.107.

As to RRIRRRPPRLPRPRPRPFYDPRP, the “shrunken log2 fold change” value was -0.193.

In the case of RRIRNRPPRLPRPRPRPRGYPRP, the “shrunken log2 fold change” value is -0.846.

As for RRIRDRPPRLPRPRPRPNGNPRP, the “shrunken log2 fold change” value was -0.169.

Take RRIRNRPPRLPRPRPRPMVLPRP: the “shrunken log2 fold change” value was 0.0232.

As to RRIRERPPRLPRPRPRPPVLPRP, the “shrunken log2 fold change” value was 0.127.

In the case of RRIRCRPPRLPRPRPRPCGCPRP, the “shrunken log2 fold change” value is -0.0301.

In the case of RRIRKRPPRLPRPRPRPRSWPRP, the “shrunken log2 fold change” value came to 0.833.

Consider RRIRKRPPRLPRPRPRPALEPRP, for which the “shrunken log2 fold change” value was -0.108.

As for RRIRLRPPRLPRPRPRPAPMPRP, the “shrunken log2 fold change” value stood at 0.118.

For RRIRTRPPRLPRPRPRPGEHPRP, the “shrunken log2 fold change” value was -0.187.

In the case of RRIRYRPPRLPRPRPRPRCYPRP, the “shrunken log2 fold change” value amounted to 0.0145.

As for RRIRSRPPRLPRPRPRPMHYPRP, the “shrunken log2 fold change” value was -0.224.

Consider RRIRQRPPRLPRPRPRPNVTPRP, for which the “shrunken log2 fold change” value turned out to be 0.0508.

For RRIRPRPPRLPRPRPRPSVFPRP, the “shrunken log2 fold change” value was -0.0552.

On to RRIRRRPPRLPRPRPRPNYQPRP, for which the “shrunken log2 fold change” value was -0.263.

For RRIRARPPRLPRPRPRPCKFPRP, the “shrunken log2 fold change” value is -0.138.

In the case of RRIRARPPRLPRPRPRPYFQPRP, the “shrunken log2 fold change” value was -0.383.

As to RRIRWRPPRLPRPRPRPEDNPRP, the “shrunken log2 fold change” value turned out to be 0.547.

As to RRIRCRPPRLPRPRPRPHNPPRP, the “shrunken log2 fold change” value was -0.377.

With RRIRARPPRLPRPRPRPNRTPRP, the “shrunken log2 fold change” value stood at 0.197.

Consider RRIRARPPRLPRPRPRPGKEPRP, for which the “shrunken log2 fold change” value was 0.222.

With RRIRQRPPRLPRPRPRPLTHPRP, the “shrunken log2 fold change” value turned out to be 0.045.

RRIRCRPPRLPRPRPRPKCHPRP: the “shrunken log2 fold change” value is 0.205.

On to RRIRARPPRLPRPRPRPEEGPRP, for which the “shrunken log2 fold change” value was 0.457.

Turning to RRIRRRPPRLPRPRPRPTYMPRP, the “shrunken log2 fold change” value is -0.242.

As for RRIRNRPPRLPRPRPRPAQCPRP, the “shrunken log2 fold change” value was -0.0739.

With RRIRTRPPRLPRPRPRPTLHPRP, the “shrunken log2 fold change” value is -0.126.

Turning to RRIRPRPPRLPRPRPRPPFCPRP, the “shrunken log2 fold change” value is 0.317.

Regarding RRIRHRPPRLPRPRPRPGQKPRP, the “shrunken log2 fold change” value was 0.00748.

For the sequence RRIRSRPPRLPRPRPRPKSHPRP, the “shrunken log2 fold change” value was -0.158.

For the sequence RRIRIRPPRLPRPRPRPKPNPRP, the “shrunken log2 fold change” value was -0.105.

In the case of RRIRFRPPRLPRPRPRPQTEPRP, the “shrunken log2 fold change” value was -0.00927.

For the sequence RRIRHRPPRLPRPRPRPVTAPRP, the “shrunken log2 fold change” value turned out to be 0.0123.

Consider RRIRCRPPRLPRPRPRPVTSPRP, for which the “shrunken log2 fold change” value is -0.0245.

Take RRIRMRPPRLPRPRPRPTPMPRP: the “shrunken log2 fold change” value came out at 0.981.

As to RRIRYRPPRLPRPRPRPQLQPRP, the “shrunken log2 fold change” value is -0.137.

Take RRIRTRPPRLPRPRPRPWWIPRP: the “shrunken log2 fold change” value is -0.869.

Regarding RRIRKRPPRLPRPRPRPQFRPRP, the “shrunken log2 fold change” value was 0.0319.

Take RRIRWRPPRLPRPRPRPLVTPRP: the “shrunken log2 fold change” value came out at 0.687.

Consider RRIRSRPPRLPRPRPRPNEGPRP, for which the “shrunken log2 fold change” value was -0.0691.

As to RRIRSRPPRLPRPRPRPKVHPRP, the “shrunken log2 fold change” value is -0.231.

RRIRQRPPRLPRPRPRPYEQPRP: the “shrunken log2 fold change” value was -0.609.

With RRIRGRPPRLPRPRPRPADDPRP, the “shrunken log2 fold change” value came to 0.563.

Consider RRIRPRPPRLPRPRPRPQWWPRP, for which the “shrunken log2 fold change” value worked out at 0.111.

As to RRIRGRPPRLPRPRPRPNTHPRP, the “shrunken log2 fold change” value is 0.102.

As for RRIRFRPPRLPRPRPRPWLIPRP, the “shrunken log2 fold change” value is -0.441.

On to RRIRFRPPRLPRPRPRPLIIPRP, for which the “shrunken log2 fold change” value was -0.575.

Consider RRIRFRPPRLPRPRPRPWWRPRP, for which the “shrunken log2 fold change” value is -0.471.

Consider RRIRGRPPRLPRPRPRPGLCPRP, for which the “shrunken log2 fold change” value is 0.957.

As to RRIRPRPPRLPRPRPRPIARPRP, the “shrunken log2 fold change” value was -0.0116.

On to RRIRIRPPRLPRPRPRPSDHPRP, for which the “shrunken log2 fold change” value was -0.91.

Regarding RRIRLRPPRLPRPRPRPKSGPRP, the “shrunken log2 fold change” value was determined as 0.143.

With RRIRFRPPRLPRPRPRPGNEPRP, the “shrunken log2 fold change” value was -0.00911.

With RRIRLRPPRLPRPRPRPRQKPRP, the “shrunken log2 fold change” value turned out to be 0.154.

RRIRCRPPRLPRPRPRPCFTPRP: the “shrunken log2 fold change” value is -0.552.

Regarding RRIRPRPPRLPRPRPRPRNVPRP, the “shrunken log2 fold change” value turned out to be 0.0758.

RRIRRRPPRLPRPRPRPNLHPRP: the “shrunken log2 fold change” value was -0.288.

Consider RRIRGRPPRLPRPRPRPQNGPRP, for which the “shrunken log2 fold change” value stood at 3.22.

Turning to RRIRRRPPRLPRPRPRPDQPPRP, the “shrunken log2 fold change” value worked out at 0.0262.

RRIRMRPPRLPRPRPRPKENPRP: the “shrunken log2 fold change” value stood at 1.9.

As for RRIRCRPPRLPRPRPRPYMYPRP, the “shrunken log2 fold change” value was -0.912.

Turning to RRIRLRPPRLPRPRPRPSIQPRP, the “shrunken log2 fold change” value was -1.1.

On to RRIRWRPPRLPRPRPRPFVGPRP, for which the “shrunken log2 fold change” value is -0.166.

With RRIRDRPPRLPRPRPRPTEGPRP, the “shrunken log2 fold change” value was -0.0161.

Regarding RRIRWRPPRLPRPRPRPQTYPRP, the “shrunken log2 fold change” value is -1.17.

As for RRIRQRPPRLPRPRPRPYFTPRP, the “shrunken log2 fold change” value was -0.818.

Regarding RRIRGRPPRLPRPRPRPFYWPRP, the “shrunken log2 fold change” value was 0.161.

RRIRNRPPRLPRPRPRPFMDPRP: the “shrunken log2 fold change” value turned out to be 0.0237.

In the case of RRIRKRPPRLPRPRPRPMDYPRP, the “shrunken log2 fold change” value was 0.0283.

For RRIRHRPPRLPRPRPRPDVIPRP, the “shrunken log2 fold change” value worked out at 0.0849.

In the case of RRIRMRPPRLPRPRPRPKRAPRP, the “shrunken log2 fold change” value was 2.44.

Regarding RRIRPRPPRLPRPRPRPQVHPRP, the “shrunken log2 fold change” value was -0.0018.

As for RRIRFRPPRLPRPRPRPAQSPRP, the “shrunken log2 fold change” value came out at 0.0902.

For the sequence RRIRARPPRLPRPRPRPFIEPRP, the “shrunken log2 fold change” value is 0.0738.

For the sequence RRIRLRPPRLPRPRPRPTHRPRP, the “shrunken log2 fold change” value was determined as 0.101.

RRIRYRPPRLPRPRPRPANDPRP: the “shrunken log2 fold change” value is -0.0297.

With RRIRCRPPRLPRPRPRPLSLPRP, the “shrunken log2 fold change” value was -0.305.

Take RRIRIRPPRLPRPRPRPRGTPRP: the “shrunken log2 fold change” value was found to be 0.277.

Turning to RRIRNRPPRLPRPRPRPNQHPRP, the “shrunken log2 fold change” value is -0.116.

On to RRIRARPPRLPRPRPRPFTVPRP, for which the “shrunken log2 fold change” value is -0.253.

For the sequence RRIRARPPRLPRPRPRPLKFPRP, the “shrunken log2 fold change” value was -0.38.

Regarding RRIRRRPPRLPRPRPRPHMFPRP, the “shrunken log2 fold change” value worked out at 0.119.

With RRIRSRPPRLPRPRPRPYILPRP, the “shrunken log2 fold change” value is -0.69.

In the case of RRIRFRPPRLPRPRPRPVYSPRP, the “shrunken log2 fold change” value is -0.12.

As to RRIRPRPPRLPRPRPRPKPVPRP, the “shrunken log2 fold change” value worked out at 0.154.

For the sequence RRIRWRPPRLPRPRPRPGVVPRP, the “shrunken log2 fold change” value amounted to 0.576.

For RRIRGRPPRLPRPRPRPCHCPRP, the “shrunken log2 fold change” value is -0.017.

As to RRIRQRPPRLPRPRPRPLEFPRP, the “shrunken log2 fold change” value came out at 0.052.

In the case of RRIRDRPPRLPRPRPRPKSIPRP, the “shrunken log2 fold change” value was found to be 0.114.

Take RRIRMRPPRLPRPRPRPFYTPRP: the “shrunken log2 fold change” value was -0.364.

RRIRLRPPRLPRPRPRPNDIPRP: the “shrunken log2 fold change” value was -0.723.

In the case of RRIRPRPPRLPRPRPRPAPQPRP, the “shrunken log2 fold change” value stood at 0.461.

With RRIRCRPPRLPRPRPRPDQQPRP, the “shrunken log2 fold change” value was determined as 0.0369.

Consider RRIRYRPPRLPRPRPRPRSWPRP, for which the “shrunken log2 fold change” value is -0.0913.

As to RRIRERPPRLPRPRPRPIAIPRP, the “shrunken log2 fold change” value was -0.00127.

For the sequence RRIRVRPPRLPRPRPRPIIIPRP, the “shrunken log2 fold change” value was -0.235.

Consider RRIRVRPPRLPRPRPRPVFWPRP, for which the “shrunken log2 fold change” value stood at 0.378.

As for RRIRLRPPRLPRPRPRPVFEPRP, the “shrunken log2 fold change” value turned out to be 0.239.

With RRIRIRPPRLPRPRPRPSVKPRP, the “shrunken log2 fold change” value is -0.037.

As for RRIRVRPPRLPRPRPRPHWTPRP, the “shrunken log2 fold change” value was -0.045.

As for RRIRKRPPRLPRPRPRPNQSPRP, the “shrunken log2 fold change” value came to 0.341.

Regarding RRIRHRPPRLPRPRPRPWGWPRP, the “shrunken log2 fold change” value came out at 0.284.
